# Tested on: MIA (pancreatic cancer) cell genome
# Assay: ctDNA coculture with MIA cells, whole genome sequencing: genomic insertion sites, transposons at insertion points and SNVs (pancreatic cancer)
# Type: cell-based, human
# Details: for blast orientation / blast chr / Transposon orientation / Distance from insertion / Location relative to insertion: TABLE 8, pancreatic cancer co-culture; for blast orientation: BLAST alignment orientation; for blast chr: chromosome with the longest result for BLAST analysis of the full contig; for Transposon orientation: compared with the human reference genome; for Distance from insertion: distance between insertion and the transposon (0 if they overlap); for Location relative to insertion: location of the transposon relative to the insertion on the contig; for Location / No. SNP / Gene / Chr location: TABLE 4; for Location: identified genomic insertion site, chromosome; for No. SNP: number of single nucleotide variants (SNVs or SNPs) identified, polynucleotides for pancreatic cancer cells; for Gene: gene at identified genomic insertion site; for Chr location: position on the chromosome of the identified genomic insertion site
# Procedure: The integration of ctDNAs into the host cell genome was evaluated. ctDNA was extracted from patient plasma, cultured for 24 hours with cells of a matching cancer cell type or non-matching cancer cell type, and whole genome sequencing was performed. The cell lines used were MM1s (multiple myeloma, MM) and MIA (pancreatic cancer, PC).
# The sequence data was used to reconstruct genomic contigs for each experimental condition by de novo assembly. […] Coculture contigs carrying a ctDNA insertion were identified using NucDiff analysis.
# Experiments were designed to identify the presence of transposons in ctDNA fragments. To map ctDNA genomic junctions more precisely, a PACBIO probe was ligated to multiple myeloma and pancreatic cancer ctDNA samples to label their 5′ and 3′ ends. Whole-genome sequencing of DNA from cells with ctDNA genomic integration was done using the Illumina platform. De novo assembly was performed on the sequencing output. ctDNA contigs containing PACBIO adaptor were then matched to those contigs containing inserted ctDNA sequences identified in the coculture experiments. Transposable element on ctDNA sequences at the insertion points (<100 nucleotides from transition point between cell and ctDNA) were detected and classified using RepeatMaster.
# A search was conducted for transposons that preferentially target cells of matching tumor types. The lists of transposons identified at the ctDNA insertion point in matching and mismatched coculture conditions were compared (e.g., MM ctDNA with MM cells or PC cells). Transposons were selected that were uniquely or preferentially inserted in the matching conditions.
# Whole-genome sequencing and Whole exon sequencing: ctDNA was extracted from 10 MM and 10 PC patients. DNA from CD138 (+) cells and from cell lines used in in vitro experiments (MM1s and MIA) was extracted using Blood & Cell Culture DNA Mini Kit (Quiagen, MD). DNA from […] paraffin embedded pancreatic tumors was obtained using QIAamp DNA FFPE Tissue Kit Print (Qiagen, MD).
# After extraction, ctDNA was ligated to the PACBIO adaptor ([…]) using the ABM DNA Library Prep Kit for Illumina Sequencing (Applied Biological Materials Inc. Canada). PACBio-labeled ctDNA and regular ctDNA were subjected to standard methods for library preparation and sequencing using Illumina and Agilent protocols, respectively. Applied Biological Materials Inc. prepared the libraries and performed whole-exon and -genome sequencing.
# Identification of transposable elements and its nucleotide variants: To determine the locations of transposable-like regions in contigs, sequences were analyzed and transposable elements (TEs) were identified and classified using RepeatMasker version 4.1.0 and the Dfam database (release 3.1) of repetitive DNA families was used as a reference for identifying repeats in ctDNA contig sequences that were part of qualifying structural events. For each repeat sequence identified by RepeatMasker, the overall frequency of the specific repeat (e.g., for AluSp or L1) and their parent class (e.g., SINE) was computed.
# Once the TE elements were identified, hit repeats/TE sequences, unique contigs for all samples, and insertion sequence were aligned with MAFFT software version. Mutations in TE sequences were identified by comparison of nucleotides at each position in the multiple sequence alignment with the “Biostrings” R package (version 4.1). A position was considered to contain mutation if the substitution was present in contigs of all samples.
Molecule,blast orientation,blast chr,Transposon orientation,Distance from insertion,Location relative to insertion,Location,No. SNP,Gene,Chr location
L1ME4b,Plus/Plus,chr7,direct,+1930,right,,,,
Mam_R4,Plus/Plus,chr9,direct,0,intersect,,,,
"33 (nucleic acid, listed as Homo sapiens) TGTGTTAGTCAGGATAGGCTAACCTCTGTAACACACAACCCCAATTTTTCAGTGGCTCAGAACAATAGGAGTTTCTTTCTTACTCATGTAAAGTCCAGGTGTGGCAGAAACTTGCGGGGGAGAAAGTCTACTCCACAGCATCACTCAGGGACCCAGGCTCCTGCCTTACGGTGGTTCCGCCATTTTCCAGGGCCTCGGAGTCCTCCATCCCATCTCCTCCATTCAGCTGGTGGATGTGGGAGGAGAGCGTGTATGAAAGACCACACAGAAGCTTTTTTTGGGCCAGGCTTTGAGACGGCGCACATCAGTTTCGCTCTTGTTGCCCAGGCTGGAGTGCAATGGCGCAATCTCGGCTCACCGCAAAAGACACTGGGAAATTTGGTCTGGCCATGTGTCTAGGAAGCAGAGGAGATGGGGTTTCATAAACTCCTGAACTCTCTCTACCACG",,,,,,Chr21,4,,
"32 (nucleic acid, listed as Homo sapiens, misc_difference 279 a, c, t, g, unknown or other; misc_difference 286 a, c, t, g, unknown or other) CTCCATGTTCTGACCTCAGGTGATCTGCCCGCCTCCGCCTCCCATAAGTTCCTTCTGCACCTATTCCATTCCATCTGCAATGTCATCCTGGCCAACCTGTGAATGGGTATAGCAGGATAGTAAGTTAGTCCCAGTGTTTAGGCAGACTCCATAGACCAGATTTAACGTGTTTGTATAAACCGCATGGCTCGCTCTTACTCAGCCTTCGGGTCGGCCTTAAGATACACAGTTTTAAGAAAAGCATTGTCTTCACTCTTAGTGTAGATCAGGTCCTCCTCNCCCCCANCACGTTATGTCCCTGTCATTGAACATTATACTTTTATGAAGAATTGTGAGCTGTCTGAGATTTTACCTTACTTGCAAACTAACAAGTGGGCCTGCCATAGTTTCATGTCTGGCAGAAGACTCCAACAGGTCAGAGATTTTCATCTGTCTTGTTCACTATTGTCTACATAGTGCCTGGAAAAATGCCTGGCACACAGTAAACCCTCAATCAGTATTTTATGAATGAGTGAAC",,,,,,Chr21,5,,
"35 (nucleic acid, listed as Homo sapiens) AAGATGGGGAGGATGGTGGTGGAGCAGGCTGGGGAGATGAGGAGCTTGAGGGGCCTAGGAGCTAACCACCCATTCACTGTTTATGGGTGGGGTGGCTCCGGGCAGGTGGCCTGACCCCTCTAAACCTCAGTTTCCCCATCTGTAAAATGGGAGTAATTGTACCTGCCTCACGGGCATGTAGCAGGTGGGAGAGAGAGTAATACGGGCAAGACGTCTAGTGCAGTGGCTGGAACATAACAAGCACCCAGCAAGTGGTGGCCCCATTGCT",,,,,,Chr14,0,,
"30 (nucleic acid, listed as Homo sapiens) AATATTAATTTGGGCTCTCCAGAGAAACAGAACCAATAGATTACACATAGATATATAGAAAGACAGTTATTACAAGGAATTGGCTCACAGGATTATGTAGGCTGAGAAGTCCCATGACCTGCCGTCTGCAAGCTGGAGACCCAGGAAAGCCGGTGGTGTAGTTCCAGTCCGAGTTGGGAGGTCTGAGAATCGGGAGAGCTGACAGAGTAAGCTCTAGTTGCAGCCTGGAGTCCAGAGGGCAAAGAACACCTATGTCCCATCTCAAGCACGGTCAGGCGTCCCAGCTCAAGCAGAGAGAAAGAAGACTTTCCTGCTCAGCCTCCTTGCTCTAAGCAGCCTCCCGACGGATTGGATGAAGCTCACCCACGCTGGGGAGGGCAGCCACCTTCACTCAGTCCACCAATTCAAATGCTAATCTCATCCAGAAACACCCTCACAGGCACACCCAGAAATAATGTTTAGCCACATATCTGGGCATCCTGAGGACCAGTCAAATTGACTCATAAGTCTCACCATCATA",,,,,,Chr3,1,RAB7A,
"46 (nucleic acid, listed as Homo sapiens) CACCCAAGTCACCTCTTGAATGCTTTGCTGCTTAGACATTTCTTCTGCCAGATACCCTAAATAATCTCTCTCAAGTTCAAAGTTCCACAAATCTCTAGGGCAGGGGCAAAATGCCACCAGTCTGTTTGCTAAAACATAACAAGAGTCATCTTTGCTCCAGTTCCCAACAAATTCCTTATCTCCATCTGAGACCACCTTATCCTGGATTTCATTGTCCATATCATTATCAGCATTTTGGTCAAAGCCACTCCACAAGTCCCTAGGAAGTTCCAAACTTTCCCACATTTTCCTGTCTTCTTCTGAGGCCTCCAACCTATTCCACCCTCTGTCTGTTACCCAGTTCCAAAGTTGCTTCTACATTTTCAGGTGTCTTTTCAGCAGTGCCACACTCTACTGGTACTAATTTAC",,,,,,Chr 5,2,,107782747
"39 (nucleic acid, listed as Homo sapiens) GTATTTAGATTCCCAGACTTTGGAGCCAGATCGGCTGAGTTCAAACCCTGTCTGTGCAACTATCAGCTGTTCAGCTGTGTGACCTTGGGCAAGTTACTTAACCTCTCTGAACCCTGATTCCTCCTGCAAACGGTGGGAAAAATAATAGAACCAATCTCTCTGGGTTGCTGTAAGGATTAAATTAATTTACAGTGCATGTAACATGCTTACAGCAATGTCTGGCACACAGTAAGCACTAAGTATTTGTTGTTATTTGTCATC",,,,,,Chr 2,1,,27942978
"49 (nucleic acid, listed as Homo sapiens) CTTTAACCTCCTTGTTACGTTTGTCTCTTCCAGAATCGAAGCTGTAAAACTACAAATGGTTCTTCAAATGGAGCCCCAGATGCAGTCCATGACTAAGATCTACCGCGGACCCCTGGACTGGCCTGCTAGCCCATGCTCCAATGTTGATGACATTGAAGGCACCCCTCCCAAGGAAATCTCAACTGCACGACCCCTACTATGCCCCAATTCAGCATGAAGCAGTTAAGAGCGGTTGTCAGCCAACCTCCCCAACAGCACTTGGGTTTTCCTGTTGAGAGGTGGGACTGAGAGA",,,,,,Chr 6,5,AIG1,143409567
"41 (nucleic acid, listed as Homo sapiens) CCCTTGAACTTATTAAAATCTTTTATAATGTAGTACATTTACTGACTGCTTTCAGGCAGGCATGAGGACCTTTCACTCCATTTGCTCCATTGTCCCTTTTGAAGGATTCTTGTCATATATATAAAACCTCTTAAGACATAATGTTATTGTTTTATATACTCTTTAATCACCTACATCTTTGCACTTTAATATTTCCTAAATTTGCATTCTTCTCTCTGGGACTAGAAGACCTCAGCTTAGCGGTTCTTTTCATGTGGGCCTGAGAAATTTTCTCACTTTTTGTTTCACTTTCATTCTTGAAGGAACGTTTCACTGGTTATAGGATGCAAGGTTAGCGGTTATTCTCTTCTGCATCTTCCCACTGCATTGTCTTCTGAATCTTATAATTTATGTAAAAACATTAGTTGTCTGTCTTCCCATTGCTTCTGTGAAAATAATGCATGTTTTCCTCTGGTTGTTTTTGACATTTTCTTTGTGTCTGTTTCTCAGCAATTTTTCCATGATATATGCTCGGAGCGGGCTTACTTATCCTACACCCTGAATCTGTAGCTTGACGTCTTTTTGTCAACTTTGGAAAGTTTTTGGCATTATCTCATCAAATATTTCCCCTGTCCTGTTCTTGCTCTTCTCTTGCTGGAGTGCAGTCGTTCCTGTATTAGACCTTTGCATCATGTTCTAGGTATTTTTATCT",,,,,,Chr 7,1,GRB10,50660129
"47 (nucleic acid, listed as Homo sapiens) AGGCCTGGCACAGTGGCTCATGCGTGTAATCCCAACACTGCGGGAAGCTGAGGCAGGAGGATCACTTGAGCCCAGGAGCTCATGGCTGTAGTGAGCTGTGATTGCACCACTGCACTGCACTCCAGCCTGGGCAACAGCAAGACCCTGTCTCCAAAAAAAAAAAACAAAACAAATTAAT",,,,,,Chr 10,4,LINE1/Alu,14247220

# Reference: patent US20250241939A1, “NUCLEIC ACID-BASED DELIVERY SYSTEMS AND USES THEREOF” (Kodikaz Therapeutic Solutions, Inc., priority 2022, published 2025)
